# Measured values: the nanobody polyreactivity screen of Harvey et al. (2022)
# Assay: yeast display, Sf9 membrane polyspecificity reagent, FACS + sequencing; frameworks hold sequencing errors
# Outline: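 A nanobody's polyreactivity label depends on the gate it was sorted from. Yeast display cells were stained with 10% biotinylated, detergent-solubilized Sf9 membrane reagent for 1 hour at 4 °C, enriched on streptavidin microbeads and sorted by FACS. The low and high (top ~1%) gates were set on anti-HA fluorescence for expression and streptavidin fluorescence for reagent binding.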
row,Sequence,polyreactivity (PSR sort gate)
1,QVEHLDSGGGLVQAGGILRLSCASSGIIFGYYAMGWYRQEPGKERELVAGITYRTGSTYYADSVKGRFTISRDNAKNTVYLQMNSLKPEDTEVYFCAATQYTRNYSSWYYYWGQGTQVTVSS,high polyreactivity
2,QVEIVESGGGLVQAGGSLRLSCAASGRTFSYYAMGWYRQAPGKERELVAAISTSGGSTYYAVSVKGRFTISRDYAKITVYLQMNSLKPEDTAVYVCAASPYLRFLYGGFGYWGQGTQVTVSS,high polyreactivity
3,QVELVASGGGLVQAGGSLRIRCAASGGIFDGNAKGWYRQAPGKEREMVAAISSGGITKYAASVKGRFTISRDNAQYTVYLQMNSLKPEDSAVYYCAASWDRYRFIRNDYWGQGTQVTVSS,high polyreactivity
4,QVELVESAAGLVQAGGSLRLSCAASALTFSRYTMGWYSQAPGKDRELVAAISRSGASTYYADSVKGRFTISRDNAKNTVYLQTNSLTPEDTGVYYCAKTSTSYGSLPKVTPYPLDYWGQGTQVTVSS,high polyreactivity
5,QVELVESGGGLVQAGGRPRLSCAASGSTFAGYAMGWERQAPGKERELVAAISRRGGSTYYADSVKGRFTISRDNAKNTVYLQMNSLKPEDTAVYFFARDYPLHYDYWGQGTQVTVSS,high polyreactivity
6,QVELVESGGGLVQAGGSLRLSCAASGFIFEKYTMGWYRQATGKETELVADITWNGGSTYYADSVKGRFTISRDNAKNTVYLQMNSLKPEDNAVYYCAARVGWNQRRYDYWGQGTQVTVSS,low polyreactivity
7,QVELVESGGGLVQAGGSLRLSCAASGFIFYRYTMGWYRQAPGKEREVVAAISRRGGSTYYADSVKGRFTISRDNAKNTVYLQLNSLKPEDTAGYYCAARLGGYPRQGRYDYWGQGTQVTVSS,high polyreactivity
8,QVELVESGGGLVQAGGSLRLSCAASGFTFDRYAMGWYRQAPGTERELVAALTRRGTTTYYADSVKGRFTISRDNAKNTVYLQMNSLKPEDTAVYYCAAKRGSVSRPDYGANDESWGQGTQVTVSS,high polyreactivity
9,QVELVESGGGLVQAGGSLRLSCDASGITFRSYAMGWYRQAPGKERELVAAIRSGGSTSYADSVKGRFTISRDNAKNTVYLQMNSLKPEDTAVYFCAAGGYVPLTDITFWKFGYWGQGSQVTVSS,low polyreactivity
10,QVHHVESGFGLVQAGGSLRLSCASSGTFTVNTMGWYRQAPGKERELVAAISTGDTTTYADSVKGRFTISRDNAKNTVYLQMNSLKPEDTAVYYCNVDIGVYAYESDYWGQGTQVTVSS,low polyreactivity
11,QVHHVESGGGLVQAGGSLRLSCAASGIIFGYNVMGWYRQEPGKVRELVAAMRYSGGSTYYADSVKGSFTISRDNAKNTVYLQMNSLKPEDTAVYYCATYSAVRELLWGNGYWGQGTQVTVSS,high polyreactivity
12,QVHHVESGGGLVQAGGSLRLSCAASGITFSSYAMGWYRQAPRKERELVAAISYGGGNTYYADSVKGRFTISRDNAKNTVYLQMNSLKPEDTAVYYCNTLYTSYSGLDYWGQGTQVTVSS,high polyreactivity
13,QVHHVESGGGLVQAGGSLRLSCAASGLTFYGYTMGRSRQAPGKERELVAAISRGTSTKYADSVKGRFTISRDNAKNTVYLQMNSLKPEETAVYYCAAKGSRSGMGYWGQGTQVTVSS,high polyreactivity
14,QVHHVESGGGLVQAGGSLRLSCAASGSTFGAHAMGWYRQAPGKERELVAVITWNDGSTYYADSVKGRFKISRDNAKNTVYLQMNSLKPEDTAVYYCAAEYADSWSAFAWNYYYWGQGTQVTVSS,high polyreactivity
15,QVHHVESGGGLVQAGGSLRLSCAASGSTFYGYALGWYRQAPGKERELVAAITGSGDTTYYADSVKGRFTISRDNAKYTVYLQMNSLKPEDTAVYYCNRDYRSDLGYADQSWTDQYDHWGQGTQVTVSS,low polyreactivity
16,QVHHVESGGGLVQAGGSLRLSSAASGSIFTYTMGWYRQAPGKERELVAAISGGGGRTYYADSVKGRFTISRDNAKNNVYLQMKSLKPEDSAVYYCNAYQYWRYRWQYNYWGQGTQVTVSW,high polyreactivity
17,QVHHVESGGGLVQAGGSLRLSSAASGSIISYYAMGWSRHAPGKERELVPAINRSGGSTYYADSVKGRFTITRDNAKNTVYLQMNSLKPDDTAVYYCNAVRLYYGAGGQFQYHYWGQGTHVTVSS,high polyreactivity
18,QVHIVESGGGLVQAGGSLRLSSAASGRIFYRYAMGWYRQAPGKERELVAAISRRGGSTYYADSVKGRFTISRDNAKNTVYLQMNSLKPEDTAVYYCNVYRSAFSYDSWGQGTQVTVSS,high polyreactivity
19,QVHLEESGGGLVQAGGSLRLSCAASGRTFRHNAMGWYRQAPGKERELVAAISSSGTNTHYADSVKGRFTISRDNAKNTVYLQMNSLKPEDTAVYYCAADRWGARRKQYHENGYWGQGTQVTVSS,high polyreactivity
20,QVHLEESVGGLLQAGGSLRLSCVASGSTFGAYAMGWYRQAPGKERELVAAINTGDSTNYADSVKGRFTISRDNAKNTVYFQMNSLKPVDTAVYYCAAVSKHSGDELDYWGQGTQVTVSS,high polyreactivity

row,Sequence,polyreactivity (PSR sort gate)
1,QVHLGESGARIDQAGGSLRLSCAASGRIFKYNAMGLYRQAPGKEREWVAAISSGGSTNYADTEKGRFTISRDNAKNTVYLQMNSLKPEDTAVYYCAADGTRVSSFHYLVWLGYWGQGTQVNVSS,low polyreactivity
2,QVHLGESGGGLVQAGGSLRLSGAASGFTFAVNAMGWYRQAPWNERELVAGITSGGRTNYADSVKGRFTISRDNAKNTVYLQMTSLKPEVTAVYYCAAARRYSKGYVPPYYKYRYDYWGQGTHVTVSS,high polyreactivity
3,QVHLLESGRGLVQAGGSLRLSCAASGRIFYTNAMGSYRQAPGKERELVAVISWGGDTTYYADSVKGRFTISRDNAKNTVYLQMNSLKPEDTAGYYCNADWGPTYEISDSWGQGNQVTVSS,low polyreactivity
4,QVHLQESAGGLVQAGGSLRLTCSASGYISFDASMGWYRQAPGKERELAASIPKGSSTNYADSVKGRFTIRDNATITVYLQMNSLQPEDTAVCYCAVTYPYWGDYTYWGQGTQVTVSC,low polyreactivity
5,QVHLQESGGGLMQAGGSQRLSSAASGSISYYSDMGWYRQAPGKEREFVAGIGYGTTTNYADSVKGRFTTSRDNGKNTVYLQMSSMKPEDTAVYYCAAYQGNGYEFYYWGQGTQVTVRS,low polyreactivity
6,QVHLQESGGGLVQACGSQRLSCAARGSISEGQDMGWYRRAPGKEREFVAGIAPGATTYYADSVRGRFTISRDNANNTVSLQMNSLKPEDTAVYYCAARTVTETDHDYWGQGTQVTVSS,low polyreactivity
7,QVHLQESGGGLVQAVGSLRLSCAASGNISEYYDMGWYRQAPGKERKFVAGIDFGAITNYADSVKGRFTISRDNAKNTEYLQMRSLKPEDTAVYYCAAGVYDWYAYDYWGQGTQVTVSS,high polyreactivity
8,QVHLVDSGGGKVQAGGSLRLSCAASGSIFYWNAMGWYRQAPGKERELVATITITTSTNYADSVKGRFTISRDNATHSVYLQMNSMKPEDTAVYYCNAGAPYRYLDEYNYWGQGTQVTVSS,low polyreactivity
9,QVHLVDSGGGLVQAGGRLRLSCAASASIFLIYAMGWYRQAPGQERELVAAINYSGVRTYYADSVKGRFTISRDNAKNTVYLQMNSLKPEDSAVYYCAVSRGGAYYQYGYWGQGTQVSVSS,high polyreactivity
10,QVHLVDSGGGLVQAGGSLRLSCAASGRIIYGNAMGWYRQSPGKERELVAAISSGTSTNYADSVKGRFTISRDNAKNTVYLQMNSLKPEDTAVYYCAAGSYSRYIYSLYFDFDYWGQGTQVTVSS,low polyreactivity
11,QVHLVDSGGGLVQAGGSLRLTCSASGFTFRYYTMGWYIQAPGKERELVAVIRSTGSTNYADSVKGRFTISRDNAKNTVYLQMNSLKPEDTAVYYFNAARGWYNPPKYGSIGFDFWGQGTQVTVSS,high polyreactivity
12,QVHLVESCGALVHAGGSLRLSCAASGSIFRGNAMGWYRQAPWKERELVAAITGSGGNTYYADSVKGRFTISRDNAKNTVYLQMNSLKPEDTAVYYCNADGWNTYIGPRRYSYDYWGQGTQVTISS,low polyreactivity
13,QVHLVESCGGLVQARGSLRLSCAASGSTIDYNSMGWYRLAPWKEREMVATITSSVGSTYYEDSVKGRYTISRDNAKNTVDLHMNCVKPEDTAVYYCAADYDYPDYYAPSWRRYTYWGQGTQVTVSS,low polyreactivity
14,QVHLVESGGALVQAGRSLRLSCAASGSTFTINVKGWYRQAPGKERELVAAINGGGRTNYADSVKGRFTISRDNAKNTVYLLMNSLKPEDTAVYYCAADGLSNVRQMDYWGQGTQVTVSS,low polyreactivity
15,QVHLVESGGCLVQAGGSLRLSCAASGSIFGDYVMAWYRQAPGKERELVAAITRGGSTYYADSVKGRFTFSRDNAKNTVYLQMNSLKPEDTAVYYCAASYYFVQWGWYYYWGQGTQVTVSS,low polyreactivity
16,QVHLVESGGCLVQAGGSLRLSGAASGGNFSTYAMGWYRQAPGKERELVSSITERGGSTYYADSVKGRFTISRDNAKNTFDLQMNSLKPEDTAVYYCAADWDASWWLVPTSSYDYWGEGTQVTVSS,low polyreactivity
17,QVHLVESGGGFVQAGGSLGLSCAASGLTFSGNTMGCYTPAPGKERELVAAISSDGSTNYADSVKGRFTLSRDNAKYSVYLQMNSLKPEDTAVYYCNARVRYYFAFWRDYWGQGTQVTVSS,low polyreactivity
18,QVHLVESGGGFVQAGGSLRLSCAASGSICGSYAMGWYRQAPGKERELVAAISKSGGNTYYADSVKGRFTISRDNAKNTVYLQMNSVKPEDTAVYYCAAYGFYRWRGYDYSGQGTQVTVSS,high polyreactivity
19,QVHLVESGGGIVQAGGILRLSCAASGNTFYENVMGWYRQTPGKEREFVAAITYIGGNTYYADSVKGRFTISRDNAKNTVYLQMNSLKPEDTAVYYCAAEWDWPTYYTYYWYFSYDYWGQGTQVTVSS,low polyreactivity
20,QVHLVESGGGLDQAGGSLRLRCAATGRTFKYYAMGWYRQAPGKERELVAAISGSGGSTYYADSVKGRFTISRDNAKNTVYLQMNSLKPEDTAVYYCAAAGKETSRYAYDSWGQGTQVTVSS,high polyreactivity
